Results on eight molecules are retold here after article PMC11189301, “Structure of the human outer kinetochore KMN network complex” (Nature Structural & Molecular Biology, 2024).

Substitutions are numbered along the chain they refer to. Names may count otherwise.

T1: Knl1 residues 1870–2342 (human, UniProt Q8NG31 1870-2342)
T1 construct: Knl1, human, 2,342-residue protein, residues 1870-2342; coordinates traced R2097–H2342; Subunit within the KMN network cryo-EM sample; also called extended version of the Knl1 C terminus; source: High-5 insect cells, expressed and purified as part of KNL1C
T1 sequence (looked up): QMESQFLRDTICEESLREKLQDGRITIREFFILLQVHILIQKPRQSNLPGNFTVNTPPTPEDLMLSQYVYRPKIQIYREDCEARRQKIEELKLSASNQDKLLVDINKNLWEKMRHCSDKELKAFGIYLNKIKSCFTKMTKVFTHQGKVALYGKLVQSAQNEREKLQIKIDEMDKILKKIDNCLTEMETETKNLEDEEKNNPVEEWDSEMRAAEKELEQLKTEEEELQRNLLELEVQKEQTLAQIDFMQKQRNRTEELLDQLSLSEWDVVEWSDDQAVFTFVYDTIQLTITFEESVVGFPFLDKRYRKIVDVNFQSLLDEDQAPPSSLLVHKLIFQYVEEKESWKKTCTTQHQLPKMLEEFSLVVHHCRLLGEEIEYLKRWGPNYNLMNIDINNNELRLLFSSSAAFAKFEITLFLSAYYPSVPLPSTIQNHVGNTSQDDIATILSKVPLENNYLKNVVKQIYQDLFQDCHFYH

B1: Dsn1 (natural protein, Homo sapiens, UniProt Q9H410 1-356, looked up)
chain: MTSVTRSEIIDEKGPVMSKTHDHQLESSLSPVEVFAKTSASLEMNQGVSEERIHLGSSPKKGGNCDLSHQERLQSKSLHLSPQEQSASYQDRRQSWRRASMKETNRRKSLHPIHQGITELSRSISVDLAESKRLGCLLLSSFQFSIQKLEPFLRDTKGFSLESFRAKASSLSEELKHFADGLETDGTLQKCFEDSNGKASDFSLEASVAEMKEYITKFSLERQTWDQLLLHYQQEAKEILSRGSTEAKITEVKVEPMTYLGSSQNEVLNTKPDYQKILQNQSKVFDCMELVMDELQGSVKQLQAFMDESTQCFQKVSVQLGKRSMQQLDPSPARKLLKLQLQNPPAIHGSGSGSCQ
notes: Dsn1, subunit of human MIS12C; Subunit within the KMN network cryo-EM sample; residues N-terminal to Arg92 are disordered; source: High-5 insect cells, expressed and purified as part of MIS12C
B2: Nsl1 (natural protein, Homo sapiens, UniProt Q96IY1 1-281, looked up)
chain: MAGSPELVVLDPPWDKELAAGTESQALVSATPREDFRVRCTSKRAVTEMLQLCGRFVQKLGDALPEEIREPALRDAQWTFESAVQENISINGQAWQEASDNCFMDSDIKVLEDQFDEIIVDIATKRKQYPRKILECVIKTIKAKQEILKQYHPVVHPLDLKYDPDPAPHMENLKCRGETVAKEISEAMKSLPALIEQGEGFSQVLRMQPVIHLQRIHQEVFSSCHRKPDAKPENFITQIETTPTETASRKTSDMVLKRKQTKDCPQRKWYPLRPKKINLDT
notes: Nsl1, subunit of human MIS12C; Subunit within the KMN network cryo-EM sample; source: High-5 insect cells, expressed and purified as part of MIS12C
B3: Mis12 (natural protein, Homo sapiens, UniProt Q9H081 1-205, looked up)
chain: MSVDPMTYEAQFFGFTPQTCMLRIYIAFQDYLFEVMQAVEQVILKKLDGIPDCDISPVQIRKCTEKFLCFMKGHFDNLFSKMEQLFLQLILRIPSNILLPEDKCKETPYSEEDFQHLQKEIEQLQEKYKTELCTKQALLAELEEQKIVQAKLKQTLTFFDELHNVGRDHGTSDFRESLVSLVQNSRKLQNIRDNVEKESKRLKIS
notes: Mis12, subunit of human MIS12C; Subunit within the KMN network cryo-EM sample; source: High-5 insect cells, expressed and purified as part of MIS12C
B4: ZWINT (natural protein, human, UniProt O95229 1-277, looked up)
chain: MEAAETEAEAAALEVLAEVAGILEPVGLQEEAELPAKILVEFVVDSQKKDKLLCSQLQVADFLQNILAQEDTAKGLDPLASEDTSRQKAIAAKEQWKELKATYREHVEAIKIGLTKALTQMEEAQRKRTQLREAFEQLQAKKQMAMEKRRAVQNQWQLQQEKHLQHLAEVSAEVRERKTGTQQELDRVFQKLGNLKQQAEQERDKLQRYQTFLQLLYTLQGKLLFPEAEAEAENLPDDKPQQPTRPQEQSTGDTMGRDPGVSFKAVGLQPAGDVNLP
notes: ZWINT, human; coordinates traced Q183–G221; Subunit within the KMN network cryo-EM sample; source: High-5 insect cells, expressed and purified as part of KNL1C
B5: Knl1^mut2: Knl1 (2131–2337 construct) with S2270R S2272W substitutions (protein)
chain: SLSEWDVVEWSDDQAVFTFVYDTIQLTITFEESVVGFPFLDKRYRKIVDVNFQSLLDEDQAPPSSLLVHKLIFQYVEEKESWKKTCTTQHQLPKMLEEFSLVVHHCRLLGEEIEYLKRWGPNYNLMNIDINNNELRLLFRSWAAFAKFEITLFLSAYYPSVPLPSTIQNHVGNTSQDDIATILSKVPLENNYLKNVVKQIYQDLFQD
modifications: left off: His6, N-terminal, cleaved
notes: Knl1 (2131–2337 construct) with S2270R S2272W substitutions
B6: Knl1^mut3: Knl1 (2131–2337 construct) with S2270R S2272W R2248A W2249A substitutions (protein, UniProt Q8NG31 2131-2337, looked up, variant S2270R S2272W R2248A W2249A)
chain: B5 chain with R118A, W119A
B7: Knl1^mut1: Knl1 (2131–2337 construct) with R2248D W2249A substitutions (protein, UniProt Q8NG31 2131-2337, looked up, variant R2248D W2249A)
chain: B5 chain with R118D, W119A, R140S, W142S
B8: Spc25 (natural protein, Homo sapiens, UniProt Q9HBM1 1-224, looked up)
chain: MVEDELALFDKSINEFWNKFKSTDTSCQMAGLRDTYKDSIKAFAEKLSVKLKEEERMVEMFLEYQNQISRQNKLIQEKKDNLLKLIAEVKGKKQELEVLTANIQDLKEEYSRKKETISTANKANAERLKRLQKSADLYKDRLGLEIRKIYGEKLQFIFTNIDPKNPESPFMFSLHLNEARDYEVSDSAPHLEGLAEFQENVRKTNNFSAFLANVRKAFTATVYN
notes: Spc25, subunit of human NDC80C; coordinates traced D80–N224; Subunit within the KMN network cryo-EM sample; source: High-5 insect cells, expressed and purified as part of NDC80C

One data set has as its target T1, Knl1 residues 1870–2342. Kind of data set: cryo-EM structure; NDC80C, MIS12C and KNL1C mixed 1:1:1 and run on Superose 6 in 20 mM HEPES pH 8.0, 80 mM NaCl, 1 mM MgCl2, 1 mM TCEP; about 1 mg/ml on UltrAuFoil grids; 3.0 Å (MIS12C heads 3.8 Å). To be noted: both partners purified.
The data set “Dsn1” deals with B1. The description is as above. Particulars: both partners purified.
The target in the data set “Nsl1” is B2. Described as above. To be noted: both partners purified.
The subject of a further data set is MIS12C. Kind of data set: SEC assessment of Knl1 mutants binding to MIS12C. More on the design: species or system Homo sapiens. To be noted: Knl1 (2131–2337) mutant + MIS12C at 4 µM each, 20 mM HEPES pH 7.8, 150 mM NaCl, 0.5 mM TCEP, Superose 6, at least two repeats. As for the experimental part: Assessment of substitutions in the MIS12C–KNL1 interfaces
To test the effect of substitutions in the MIS12C–KNL1 interfaces, either wild-type MIS12C or MIS12C^Nsl1ΔC was mixed with either wild-type KNL1 or two mutants (KNL1^R2248D […] (KNL1^mut1), KNL1^S2270R S2272W (KNL1^mut2)) at 4 µM each in a buffer of 20 mM HEPES (pH 7.8), 150 mM NaCl and 0.5 mM TCEP, and 50 µl was loaded onto a Superose 6 size-exclusion column (Cytiva).
Extended Data Fig. 9 Biochemical validation of the MIS12C:Knl1 interface. a Coomassie blue-stained SDS-PAGE gels of the MIS12C:Knl1 interaction reconstitutions. MIS12C (WT) and MIS12C with Nsl1 truncated at the C-terminus (1–264 Nsl1 construct, MIS12C^Nsl1ΔC) were tested in their ability to bind either wild-type RWD domains of Knl1 (2131–2337 construct, labelled Knl1 for simplicity) or Knl1 mutants (R2248D/W2249S substitutions, Knl1^mut1, and S2270R/S2272W substitutions, Knl1^mut2, as well as S2270R/S2272W/R2248A/W2249S substitutions, Knl1^mut3). The binding experiments were repeated at least two independent times with identical results. The gels are aligned according to the fraction number of the protein sample eluted from the size exclusion column. b SEC elution chromatograms of all of the experiments described in (a). Source data

As for B1, the binding result in the data set with Knl1 residues 1870–2342 was “binds”. With B2, the binding result with Dsn1 and with Knl1 residues 1870–2342 was “binds” throughout. Turning to B3, the binding result with Dsn1 and with Nsl1 was “binds” throughout. For the molecule B4, the binding result with Nsl1 and in the data set with Knl1 residues 1870–2342 was “binds” throughout. In the case of B5, the “MIS12C–Knl1 interaction by SEC, in words” value is “did not importantly disrupt MIS12C–Knl1 interactions” in the data set with MIS12C and “does not appear to reduce interaction with MIS12C” with MIS12C (listed as Knl1mut2). B6: the “MIS12C–Knl1 interaction by SEC, in words” value in the data set on MIS12C is “little to no change in the interaction”. Still for that read-out and setting: with B7 the entry was “did not importantly disrupt MIS12C–Knl1 interactions”.

With B8, the binding result with Dsn1 and with Nsl1 was “binds” each time.
